This series is described as follows: yeast display, Sf9 membrane polyspecificity reagent, FACS + sequencing; frameworks hold sequencing errors. In outline:
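After 36–48 hours of galactose induction, yeast (Saccharomyces cerevisiae BJ5465) displaying a synthetic nanobody library were stained at 4 °C for 1 hour with 10% biotinylated, detergent-solubilized Sf9 membrane reagent. Streptavidin microbeads enriched the stained cells before FACS sorting into low and high (top ~1%) gates on anti-HA and streptavidin fluorescence. Each clone's polyreactivity label reflects its gate of origin.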
Turning to “QVQLVESGGGLFQAGRSLRLSCAASGRIFVANAMGWYRQAPGIERELVAAISGRGSRTYYADSVKGRFTISRDNAKNTVYLQMNSLKPEDTAVYYCAARYRYDGRYDYWGQGTQVTVSS”, the “polyreactivity (PSR sort gate)” value is “high polyreactivity”.

Take “QVQLVESGGGLFQAVGSLRLSCAASGFIFYDYAMGWYRQAPGKEMELVAAISKRGGSTYYADSVKGRFTISRDNAKNTVYLQMNSLKPEDTADYYCAAALWGWRYYYWGQGTQVTVSS”: the “polyreactivity (PSR sort gate)” value is “high polyreactivity”.

As for “QVQLVESGGGLFQEGGSLRLSCAASGRIFGPYDMGWYRQAPGKERELVAAISQRGGTTYYADSVKGRFTISRDNAKNTVYLQMNSLKPEVTAVYYCAPKTYGWGQGTQVNVSS”, the “polyreactivity (PSR sort gate)” value was “high polyreactivity”. Regarding “QVQLVESGGGLFQEGGSLRLSCAASGRTFKYYAMGWYRQAPGKERELVASISQSGTSTYYADSVKGRFTISRDNAKSTVYLQLNSLKPEDTAVYFCGARTRYRYYSYGYWGQATQVTVSS”, the “polyreactivity (PSR sort gate)” value was “high polyreactivity”. As for “QVQLVESGGGLFQSGGSLRLSCAASGITFRYYAMGWYRQAPGKERELVAAISSGGSTNYADSVKGRFTISRDNAKNSVYLQINSLKPEDTAVYYCYRRVYSRRYYGYYYWGQGTQVTVSS”, the “polyreactivity (PSR sort gate)” value is “high polyreactivity”. Next, “QVQLVESGGGLGEAGGSLRLSCAASGSTFGYYAMGWYRQAAGKEREFVAAITGNSDNTYYADSVKGRFTISRDNATNTVYLQMNSLKPEDTAVYYCNDALDPFRFEYWRQGTQVTVSS”: “low polyreactivity”; “QVQLVESGGGLGHAGGSLRLSCAASGRIYGRNAMGWNRKAQGKERELVAAINSGVSTYYADSVKGRFTISRDNAKNTFYLQMNSLKPEDTAVYYCAKAPQRRYYDFDYWGQGTQVTVSS”: “low polyreactivity”.

For the sequence “QVQLVESGGGLGQAGGSLRLSCAASGFNFYGYAMGWYRQAPGKERELVAAISSGGGRTYYADSVKGLFTISRDNAKNTVYLQMNSLKPEDTAVYYCAAKVYFYTGGGGEDYWGQGTKVTVSS”, the “polyreactivity (PSR sort gate)” value is given as “low polyreactivity”.

As to “QVQLVESGGGLGQAGGSLRLSCAASGFTFGGNGMGWYRPAPGKERELVASISWGGGSTYYADSVKGRFRISRDKAKNTVYLQMNSLKREDTAVYDCNADRYYWSSRPTSWFNYWGQGTQVTVSS”, the “polyreactivity (PSR sort gate)” value was “high polyreactivity”. Next, “QVQLVESGGGLGQAGGSLRLSCAASGIIFWLYAMGWYRQAPGKDRELVAAITRSDGDTYYADSVKGRFTISRDNAKNTVYLQMNSLKPEDTAVYYCAARFTDYIHIWPFLLYNEVYYWGQGTQVTVSS”: “low polyreactivity”; “QVQLVESGGGLGQAGGSLRLSCAASGRIFGGYTMGWYRQAPGKEREFVDTISRSSGSTYYADSVKGRFTISRDHAKNTVYLQMNSLKPEDTAVYYCAAVYLYATGYDYWGQCTQVTVSS”: “high polyreactivity”; “QVQLVESGGGLGQAGGSLRLSCAASGRIFPKYVMGWYRQAPGKERELVAAIDKSADRTYYADSVKGRFTISRDNAKNTVYLQMNSLKPEDTAVYYCATAGYRLLDYWGQGTQVTVSS”: “high polyreactivity”.

Consider “QVQLVESGGGLGQAGGSLRLSCAASGRILKYYDMGWYRQAPGKERELVAAISVSGTSTYYADSVKGRFTISRDNAKNTVYLQMNSLKPEDTAVYYCATATGRYSFDYWGQGAQVTVSS”, for which the “polyreactivity (PSR sort gate)” value is reported as “low polyreactivity”. Next, “QVQLVESGGGLGQAGGSLRLSCAASGRTFGDYVMGWYRQAPGKEREFVAAITDSGDRTYYADSVKGRFTISRDNAKNTVYLQMNSLKPEDTAVYYCNDEIWDWYYWYAYWGQGTQVTVSS”: “high polyreactivity”; “QVQLVESGGGLGQAGGSLRLSCAASGRTFTYNAMGWYRQAPGKERELVAAISYSGGRTYYADSVKGRFTISRDNAKNTVYLQMNSLKPEDTAVYYCARAYLGYYGRTYEYWGQGTQVTVSS”: “high polyreactivity”. The same measure for “QVQLVESGGGLGQAGGSLRLSCAASGSIFEGNGMGWYRPAPGKERELVAAITFRSGSTYYADSVKGRFTISRDNAKNTVYLQMNSLKPEDTAVYYCAADEYYQVSAYDYWGQGTQVTVSS”: “low polyreactivity”; for “QVQLVESGGGLGQAGGSLRLSCAASGSIFPYYAMGWYRPAPGTERELVASINQSDGTPYYADSVKGRFTISRDNAKNTVYLQMNSLKPEDTAVYYCAADTTLQAFIRYRPIGSYDSWGQGTQVTVSS”: “low polyreactivity”; for “QVQLVESGGGLGQAGGSLRLSCAASGSIFQGYTMRWYRQARGKARELVAAITRSVTSTYYADSVKGRFTISRDNAKNTVYLQMNCLKPEDTAVYYCAATAYYARYWYDYWGQGTQVTVSS”: “high polyreactivity”. Next, “QVQLVESGGGLGQAGGSLRLSCAASGSIFRGYAMGWYRQAPGKERELVAAISWSGGSTYYADSVKGRFTISRDNAKNTVYLQMNSLKPEDTAVYYCAADRDVFGYWYYYWGQGTQVTVSS”: “high polyreactivity”. As to “QVQLVESGGGLGQAGGSLRLSCAASGSIFTQYAMGWFRPAPGKERELVATISKSSGSTYYADSVKGRFTNSRDNAKNTVYLQMNSLKPEDTAVYDCAARYTRAYPYYYWGQGTQVTVSS”, the “polyreactivity (PSR sort gate)” value was “high polyreactivity”.

On to “QVQLVESGGGLGQAGGSLRLSCAASGSIFYRNARGWYRQAPGKERELVASITSGGRTNYADSVKGRFTISRDNAKYSVYLQMNSLKPEDTAVFYCARGRASYTTSGPTPYTGYGYWRQGTQVTVSS”, for which the “polyreactivity (PSR sort gate)” value is “low polyreactivity”.

For the sequence “QVQLVESGGGLGQAGGSLRLSCAASGSIFYRYAMGWYRKAPGKERELVAAITRRGARTYYADSVKGRFTISRDNAKNTVYLQLNSLKPEDTAVYYCAATYYYWTGWRYVRGDYWGQGTQVTVSS”, the “polyreactivity (PSR sort gate)” value is “high polyreactivity”. Next, “QVQLVESGGGLGQAGGSLRLSCAASGSIRDSNAMGWYRQAPGKERELVAAITSGGSTYYADSVKGRFTISRDNAKNTVYLQMNSLKPEDTAVYYCAAAYLGYGAVQPSYEGGYWGQGTQVTVSS”: “low polyreactivity”; “QVQLVESGGGLGQAGGSLRLSCAASGSIYNDNVMGWYRQAPGKERELVAGISRSGTRTYYADSVKGRFTISRDNAKNTVYLQMNSLKPEDTAVYYCAAAYGQARRYNASQYGSWGQGTQVTVSS”: “high polyreactivity”; “QVQLVESGGGLGQAGGSLRLSCAASGSTFIDNAMGWYRQAPGKERELVAAINSSGGNTYYADSVKWRFTISRDNAKNTVYLQMNSLKPEDTAVYYCNAEFYVLYFYDYEYWGQGTQVTLSS”: “low polyreactivity”.

As for “QVQLVESGGGLGQAGGSLRLSCAASGSTFYRFTRGWYRQAPGKERELVASIRWTGGRTNYADSVKGRFTISRDNAKNTVYLQMNSLKPEDTAVYYCAAYLKYPYGASYGSWGQGTQVTVSS”, the “polyreactivity (PSR sort gate)” value was “high polyreactivity”. Next, “QVQLVESGGGLGQAGGSLRLSFAASGRTFWYNAMGWYRQAPGKERELVAAISNGGSTNYADSVKGRFTISRDYATNTVYLQMNSVKPEDTAVDYCNAGLYRSPYPGRLGSRYDYWGQGTQVTVSS”: “high polyreactivity”; “QVQLVESGGGLGQAGGSLRLSSAASGGTFGSNTMGWYRQAPGKERELVAAITSGVSTYYADSVKGRFTISRDNAKNTVYLQMNSLKPEDTAVYYCAADTTQLQGVEGDYWGQGTQVTVSS”: “low polyreactivity”; “QVQLVESGGGLIQAGGSLRLRCAASGSTFPYYAMGWYRQAPGKEREFVAAIRFSGSSTYYADSVKGRFTISRDNAKNTVFLQMNRLIPEDTAVYYCATDYWLPSYSYDYWGQGTQVTVSS”: “low polyreactivity”. In the case of “QVQLVESGGGLLHAGGSLRLSCAASGRTFDHYAMGWYRQAPGKERELVAAISSRGSSTYYADSVKGRFTISRDNAKNTVYLQMNSLKPEDTAVYYCAAKYIRDYTSNPRGYWGHGTQVTVSS”, the “polyreactivity (PSR sort gate)” value is reported as “high polyreactivity”. As to “QVQLVESGGGLLHAGGSLRLSFAASGRIFYYNGMGWYRQAPGKERELVAAISRGGSTYYADSVKGRFTISRDNAKNTVYLQMNRLLPEDTAVYDCAAYRGGLVNYWGQGSQVTVSS”, the “polyreactivity (PSR sort gate)” value is listed as “high polyreactivity”. The same measure for “QVQLVESGGGLLQAGGSLRISCAASGRIFGRYAMGWYRQAPGKERELVASISRGGSTNYADSVKGRFTISRDNAKNTVYLQMNSLKPEDTAVYYCAADLNAYPQRAYDYWGQGTQVTVSS”: “low polyreactivity”.

“QVQLVESGGGLLQAGGSLRLSCAASGFIFKYYAMGWYRQAPGKEREFVAGINWSGTSTYYADSVKGRFTISRDNAKNTVYLQMNSLKPEDTAVYYCAATAYRGRTSRYYYWGQGTQVTVSS”: the “polyreactivity (PSR sort gate)” value is given as “high polyreactivity”. As to “QVQLVESGGGLLQAGGSLRLSCAASGFTFATYAMGWYRQAPGKERELVAAISTSGGSTYYADSVKGRFTISRDNAKNTVYLQMNSLKPEDTAVYYCNAVSRSYRYAGVPGFHYDYWGQGTQVTVSS”, the “polyreactivity (PSR sort gate)” value is “high polyreactivity”. The same measure for “QVQLVESGGGLLQAGGSLRLSCAASGFTFGFYGRGWYRQAPGKERELVAAISYSGGTTYYADSVKARFTIARDNAKNTVYLQMNCLKPQDTAVNYCNTQSRETEDADYWGQGTQVTVSS”: “high polyreactivity”; for “QVQLVESGGGLLQAGGSLRLSCAASGFTFRSYDMGWYRQAPGKERELVAAISWRGGRTYYADSVKGRFTISRDNAKNTVDLQMNSLKPEDTAVYYCATDWYWGSYAPYTTRAHFDYWGQGTQVTVSS”: “high polyreactivity”. Regarding “QVQLVESGGGLLQAGGSLRLSCAASGFTFTTYAMGWYRQAPGKERELVAAITRRGGSTYYADSVKGRFTISRDNAKNTVYFQMNSLKPEDTAVYYCAAGGGWGLDYWGQGTQVTVSW”, the “polyreactivity (PSR sort gate)” value was “high polyreactivity”. Next, “QVQLVESGGGLLQAGGSLRLSCAASGLTFVDYAMGWYRQAPGKERELVAAITTSGGSITYYSDSVKGRFTISRDNAKNTVYLQMNSLKPEDTAVYSCNADYGIYTDSFRGPDYESWGQGTQVTVSS”: “low polyreactivity”. The same measure for “QVQLVESGGGLLQAGGSLRLSCAASGMGWYRQAPGKERELVAAISWNGGSTYYADSVKGRFTISRDNAKNTVYLQMNSLKPEDTAVYYCAADYSTVASSLYLDSWGQGTQVTVSS”: “low polyreactivity”; for “QVQLVESGGGLLQAGGSLRLSCAASGRIFRGYAMGWYRQAPGKESELVAGITSGGSTKYADSVKGRFTISRDNAKNTVYLQMNSLKPEDTAVYYCAKGYLPYSYYARPYIRYYWGQGTQVTVSS”: “high polyreactivity”.

For the origin of these results see the nanobody polyreactivity screen of Harvey et al. (2022).
